The record followed here is FireProtDB (doi:10.1007/s00792-015-0748-z).

First the molecules themselves.
B1: L-asparaginase, Q8TZE8 (parent)
chain: MKILLIGMGGTIASVKGENGYEASLSVKEVLDIAGIKDCEDCDFLDLKNVDSTLIQPEDWVDLAETLYKNVKKYDGIIVTHGTDTLAYTSSMISFMLRNPPIPIVFTGSMIPATEENSDAPLNLQTAIKFATSGIRGVYVAFNGKVMLGVRTSKVRTMSRDAFESINYPIIAELRGEDLVVNFIPKFNNGEVTLDLRHDPKVLVIKLIPGLSGDIFRAAVELGYRGIVIEGYGAGGIPYRGSDLLQTIEELSKEIPIVMTTQAMYDGVDLTRYKVGRLALRAGVIPAGDMTKEATVTKLMWILGHTNNVEEIKVLMRKNLVGELRD

This series covers variants of B1. The settings on record: Pyrococcus furiosus (strain ATCC 43587 / DSM 3638 / JCM 8422 / Vc1); pH 8; 60 °C; GdnHCl; Fluorescence; Tris; NaCl; transition: 2; reversible: yes; structure 4Q0M; whole UniProt chain shown.

W301F: the “ddG of mutation (higher = less stable)” value is -3.98 kcal/mol, the denaturant m value worked out at 6.21 kcal/mol/M, the “denaturant midpoint (higher = more stable)” value was 3.18 M and the unfolding free energy was found to be 19.7 kcal/mol.

Consider W60F, for which the denaturant m value was found to be 4.23 kcal/mol/M, the “denaturant midpoint (higher = more stable)” value worked out at 2.82 M and the unfolding free energy was determined as 11.9 kcal/mol.
